B1: FAM189A2 (parent)
chain: NLAGFILGCQGAQFVSSVPRCDLV
B2: PPP2R2B (parent)
chain: PSNRSFFSEIISSISDVKFSHSGR
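Further: lentivirally expressed fusions sorted by FACS into six bins by GFP to DsRed ratio, PSI derived from sequencing read proportions per bin multiplied by bin number.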

The variants in one data set derive from B1. Briefly: protein stability index of a GFP-peptide fusion (GPS, HEK-293T) (PSI 1-6); higher = more stable. Conditions: c terminus: a fixed tail appended.
For the variant LLAGFILGCQGAQFVSSVPRCDLV [N1L], the protein stability index is 2.75.

Regarding RLAGFILGCQGAQFVSSVPRCDLV [N1R], the protein stability index came out at 2.73.

For the variant YLAGFILGCQGAQFVSSVPRCDLV [N1Y], the protein stability index came out at 3.31.

For CLAGFILGCQGAQFVSSVPRCDLV [N1C], the protein stability index turned out to be 2.92.

Turning to HLAGFILGCQGAQFVSSVPRCDLV [N1H], the protein stability index turned out to be 2.03.

For the variant NLAGFILGCQGAQFCSSVPRCDLV [V15C], the protein stability index amounted to 2.72.

For the variant NLAGFILGCQGAQFKSSVPRCDLV [V15K], the protein stability index is 2.19.

As for NLAGFILGCQGAQFESSVPRCDLV [V15E], the protein stability index was 1.94.

Consider NLAGFILGCQGAQFYSSVPRCDLV [V15Y], for which the protein stability index came to 2.46.

As to NLAGFILGCQGAQFLSSVPRCDLV [V15L], the protein stability index amounted to 3.14.

With NLAGFILGCQGAQFDSSVPRCDLV [V15D], the protein stability index turned out to be 1.55.

On to NLAGFILGCQGAQFHSSVPRCDLV [V15H], for which the protein stability index stood at 3.13.

For the variant NLAMFILGCQGAQFVSSVPRCDLV [G4M], the protein stability index is 4.18.

On to NLANFILGCQGAQFVSSVPRCDLV [G4N], for which the protein stability index stood at 3.42.

For the variant NLACFILGCQGAQFVSSVPRCDLV [G4C], the protein stability index came to 3.26.

As to NLAYFILGCQGAQFVSSVPRCDLV [G4Y], the protein stability index came out at 4.24.

Turning to NLSGFILGCQGAQFVSSVPRCDLV [A3S], the protein stability index stood at 1.12.

In the case of NLHGFILGCQGAQFVSSVPRCDLV [A3H], the protein stability index stood at 2.

Consider NLKGFILGCQGAQFVSSVPRCDLV [A3K], for which the protein stability index was found to be 2.35.

For the variant NLDGFILGCQGAQFVSSVPRCDLV [A3D], the protein stability index stood at 1.84.

On to NLEGFILGCQGAQFVSSVPRCDLV [A3E], for which the protein stability index was determined as 2.11.

In the case of NLTGFILGCQGAQFVSSVPRCDLV [A3T], the protein stability index amounted to 3.18.

As for NLPGFILGCQGAQFVSSVPRCDLV [A3P], the protein stability index amounted to 1.45.

Turning to NLAGFIGGCQGAQFVSSVPRCDLV [L7G], the protein stability index was determined as 1.82.

As for NLAGFIKGCQGAQFVSSVPRCDLV [L7K], the protein stability index is 1.69.

Turning to NLAGFIDGCQGAQFVSSVPRCDLV [L7D], the protein stability index amounted to 2.19.

On to NLAGFINGCQGAQFVSSVPRCDLV [L7N], for which the protein stability index was determined as 2.75.

For the variant NLAGFICGCQGAQFVSSVPRCDLV [L7C], the protein stability index was 2.6.

With NLAGFITGCQGAQFVSSVPRCDLV [L7T], the protein stability index is 2.58.

For NLAGFIQGCQGAQFVSSVPRCDLV [L7Q], the protein stability index came out at 2.1.

As for NLAGFIRGCQGAQFVSSVPRCDLV [L7R], the protein stability index was 1.63.

With NLAGSILGCQGAQFVSSVPRCDLV [F5S], the protein stability index amounted to 1.87.

As to NLAGNILGCQGAQFVSSVPRCDLV [F5N], the protein stability index was 2.19.

In the case of NLAGDILGCQGAQFVSSVPRCDLV [F5D], the protein stability index turned out to be 2.16.

With NLAGTILGCQGAQFVSSVPRCDLV [F5T], the protein stability index was 1.86.

In the case of NLAGIILGCQGAQFVSSVPRCDLV [F5I], the protein stability index was found to be 5.13.

With NLAGQILGCQGAQFVSSVPRCDLV [F5Q], the protein stability index amounted to 2.27.

Take NLAGPILGCQGAQFVSSVPRCDLV [F5P]: the protein stability index turned out to be 3.25.

NLAGFILGCCGAQFVSSVPRCDLV [Q10C]: the protein stability index stood at 1.49.

In the case of NLAGFILGCGGAQFVSSVPRCDLV [Q10G], the protein stability index was 2.63.

NLAGFILGCMGAQFVSSVPRCDLV [Q10M]: the protein stability index turned out to be 3.99.

For the variant NLAGFILGCHGAQFVSSVPRCDLV [Q10H], the protein stability index came to 2.76.

For the variant NLAGFILGCTGAQFVSSVPRCDLV [Q10T], the protein stability index was 3.84.

With NLAGFILGCLGAQFVSSVPRCDLV [Q10L], the protein stability index was 1.53.

Regarding NLAGFILGCQGAQFVSSPPRCDLV [V18P], the protein stability index worked out at 2.8.

For NLAGFILGCQGAQFVSSDPRCDLV [V18D], the protein stability index stood at 2.55.

As for NLAGFILGCQGAQFVSSLPRCDLV [V18L], the protein stability index turned out to be 2.27.

For NLAGFILGCQGAQFVSSIPRCDLV [V18I], the protein stability index turned out to be 3.42.

As for NLAGFILGCQGAQFVSSYPRCDLV [V18Y], the protein stability index amounted to 2.68.

Consider NLAGFILGCQGAQFVSSMPRCDLV [V18M], for which the protein stability index amounted to 3.72.

For NLAGFILGCQGAQFVSSKPRCDLV [V18K], the protein stability index stood at 1.99.

Consider NLAGFILGCQGAQFVSSRPRCDLV [V18R], for which the protein stability index was found to be 1.78.

On to NLAGFILGCQGAQFVSSCPRCDLV [V18C], for which the protein stability index came to 2.83.

In the case of NLAGFILGCQGAQFVSSEPRCDLV [V18E], the protein stability index worked out at 1.05.

Take NLAGFILGCQGAQFVSSSPRCDLV [V18S]: the protein stability index came out at 2.4.

For the variant NLAGFILGCQGAQFVSSTPRCDLV [V18T], the protein stability index was found to be 1.68.

For NLAGFILFCQGAQFVSSVPRCDLV [G8F], the protein stability index came out at 3.47.

Take NLAGFILLCQGAQFVSSVPRCDLV [G8L]: the protein stability index was 2.81.

For the variant NLAGFILRCQGAQFVSSVPRCDLV [G8R], the protein stability index was 2.34.

On to NLAGFILTCQGAQFVSSVPRCDLV [G8T], for which the protein stability index came to 2.17.

NLAGFILICQGAQFVSSVPRCDLV [G8I]: the protein stability index turned out to be 3.23.

For the variant NLAGFILGCQGEQFVSSVPRCDLV [A12E], the protein stability index was found to be 3.98.

In the case of NLAGFILGCQGLQFVSSVPRCDLV [A12L], the protein stability index came to 2.95.

On to NLAGFILGCQGRQFVSSVPRCDLV [A12R], for which the protein stability index is 3.12.

As for NLAGFILGCQGKQFVSSVPRCDLV [A12K], the protein stability index worked out at 1.89.

As for NLAGFILGCQGPQFVSSVPRCDLV [A12P], the protein stability index is 2.99.

Regarding NLAGFILGCQGAQFVSSVPRCDLT [V24T], the protein stability index stood at 1.53.

In the case of NLAGFILGCQGAQFVSSVPRCDLF [V24F], the protein stability index was 2.58.

Regarding NLAGFILGCQGAQFVSSVPRCDLK [V24K], the protein stability index came out at 1.82.

As for NLAGFILGCQGAQFVSSVPRCDLA [V24A], the protein stability index was found to be 1.72.

On to NLAGFILGCQGAQFVSSVPRCDLH [V24H], for which the protein stability index amounted to 3.38.

With NLAGFILGCQGAQFVSSVPRCDLR [V24R], the protein stability index turned out to be 2.19.

As for NLAGFILGCQGAQFVSSVPRCDLI [V24I], the protein stability index was 2.26.

With NLAGFILGCQGAQFVSSVPRCDLD [V24D], the protein stability index stood at 1.76.

The variants in the next data set derive from B2. Described as above. The settings on record: c terminus: a fixed tail appended.
As for PSNRSFFSEIISSISDVKFSHSGI [R24I], the protein stability index is 1.61.

For PSNRSFFSEIISSISDVKFSHSGS [R24S], the protein stability index was determined as 3.12.

With PSNRSFFSEIISSISDVKFSHSGH [R24H], the protein stability index amounted to 1.94.

In the case of PSNRSFFSEIISSISDVKFSHSGD [R24D], the protein stability index turned out to be 3.18.

PSNRSFFSEIISSISDVKFSHSGN [R24N]: the protein stability index was found to be 2.81.

Consider PSNRSFFSEIISSISDVKFSHSGA [R24A], for which the protein stability index turned out to be 2.36.

In the case of PSNRSFFSEIISSISDVKFSHSGT [R24T], the protein stability index stood at 2.33.

On to PSNRSFFSEIISSISDVKFSHSGM [R24M], for which the protein stability index was 1.97.

For the variant PSNRSFFSEIISSISDVKFSHSGC [R24C], the protein stability index worked out at 1.87.

For PSNRSFFSEIISSISDVKFSHSGQ [R24Q], the protein stability index amounted to 2.39.

Take PSNRSFFSEIISSISDVKFSHSGF [R24F]: the protein stability index turned out to be 1.65.

For the variant PSNRSFFSEIISSISDVKFSHSGP [R24P], the protein stability index was found to be 2.31.

Consider PSNRSFFSEIISSISDVKFSHSGE [R24E], for which the protein stability index was 2.94.

For the variant PSNRSFFSEIISSISDVKFSHSGY [R24Y], the protein stability index was 3.23.

Consider PSNRSFFSEIISSISDVKFSHSGV [R24V], for which the protein stability index was determined as 1.59.

As to PSNRSFFSEIISSISDVKFSHSGL [R24L], the protein stability index was 1.75.

Take PSNRSFFSEIISSISDVKFSHSGK [R24K]: the protein stability index was found to be 2.65.

For the variant PSNRSFFSEIISSISDVKFSHSGG [R24G], the protein stability index was 2.21.

As for PSNRSFFSEIISSISDVKFSHSGW [R24W], the protein stability index worked out at 1.98.

For PSNRSFFSEIISSISDVKFSHSYR [G23Y], the protein stability index was determined as 2.27.

The record behind these values is the supplement of paper PMC10567573.
